Results published in the Human Domainome abundance scans (Beltran et al. 2025).
± gives the uncertainty stated by the source.

B1: Protein maelstrom homolog, residues 3 to 71; numbered along this chain, Q96JY0 (parent)
chain: NRKASRNAYYFFVQEKIPELRRRGLPVARVADAIPYCSSDWALLREEEKEKYAEMAREWRAAQGKDPGP

Variants of: B1
Assay: abundance fitness (aPCA) (normalised: wild type 0, dead -1); higher = more abundant; growth selection in yeast, the domain comes from the species named
Conditions: Homo sapiens
In the case of NRKASRNAYYFFVQEKIPELRRRGLPVARVADAIPYCSSDWALLREEEKEKYAEMQREWRAAQGKDPGP [A56Q], the abundance fitness is reported as -0.226 ± 0.078.
NRKASRNAYYFFVQEKIPELRRRGLPVARVADAIPYCSSDWALLREEEKEKYAEMKREWRAAQGKDPGP [A56K] gave an abundance fitness of -0.671 ± 0.12.
Variant NRKASRNAYYFFVQEKIPELRRRGLPVARVADAIPYCSSDWALLREEEKEKYAEMIREWRAAQGKDPGP [A56I] has an abundance fitness of -0.539 ± 0.23.
With NRKASRNAYYFFVQEKIPELRRRGLPVARVADAIPYCSSDWALLREEEKEKYAEMRREWRAAQGKDPGP [A56R] the abundance fitness was -0.523 ± 0.045.
Variant NRKASRNAYYFFVQEKIPELRRRGLPVARVADAIPYCSSDWALLREEEKEKYAEMLREWRAAQGKDPGP [A56L] has an abundance fitness of -0.296 ± 0.057.
Variant NRKASRNAYYFFVQEKIPELRRRGLPVARVADAIPYCSSDWALLREEEKEKYAEMEREWRAAQGKDPGP [A56E] has an abundance fitness of -0.101 ± 0.071.
NRKASRNAYYFFVQEKIPELRRRGLPVARVADAIPYCSSDWALLREEEKEKYAEMFREWRAAQGKDPGP [A56F] gave an abundance fitness of 0.124 ± 0.13.
Work on NRKASRNAYYFFVQEKIPELRRRGLPVARVADAIPYCSSDWALLREEEKEKYAEMPREWRAAQGKDPGP [A56P] yielded an abundance fitness of -0.651 ± 0.1.
With NRKASRNAYYFFVQEKIPELRRRGLPVARVADAIPYCSSDWALLREEEKEKYAEMYREWRAAQGKDPGP [A56Y] the abundance fitness was 0.208 ± 0.14.
For NRKASRNAYYFFVQEKIPELRRRGLPVARVADAIPYCSSDWALLREEEKEKYAEMGREWRAAQGKDPGP [A56G], the abundance fitness was -0.302 ± 0.045.
In the case of NRKASRNAYYFFVQEKIPELRRRGLPVARVADAIPYCSSDWALLREEEKEKYAEMSREWRAAQGKDPGP [A56S], the abundance fitness is reported as -0.02 ± 0.036.
Variant NRKASRNAYYFFVQEKIPELRRRGLPVARVADAIPYCSSDWALLREEEKEKYAEMDREWRAAQGKDPGP [A56D] has an abundance fitness of -0.31 ± 0.097.
For NRKASRNAYYFFVQEKIPELRRRGLPVARVADAIPYCSSDWALLREEEKEKYAEMVREWRAAQGKDPGP [A56V], the abundance fitness was -0.268 ± 0.058.
For NRKASRNAYYFFVQEKIPELRRRGLPVARVADAIPYCSSDWALLREEEKEKYAEMHREWRAAQGKDPGP [A56H], the abundance fitness was -0.087 ± 0.042.
Work on NRKASRNAYYFFVQEKIPELRRRGLPVARVADAIPYCSSDWALLREEEKEKYAEMCREWRAAQGKDPGP [A56C] yielded an abundance fitness of 0.027 ± 0.084.
NRKASRNAYYFFVQEKIPELRRRGLPVARVADAIPYCSSDWALLREEEKEKYAEMWREWRAAQGKDPGP [A56W] showed an abundance fitness of -0.236 ± 0.05.
Work on NRKASRNAYYFFVQEKIPELRRRGLPVARVADAIPYCSSDWALLREEEKEKYAEMNREWRAAQGKDPGP [A56N] yielded an abundance fitness of -0.16 ± 0.13.
Variant NRKASRNAYYFFVQEKIPELRRRGLPVARVADAIPYCSSDWALLREEEKEKYAEMAGEWRAAQGKDPGP [R57G] has an abundance fitness of -0.159 ± 0.068.
Variant NRKASRNAYYFFVQEKIPELRRRGLPVARVADAIPYCSSDWALLREEEKEKYAEMAEEWRAAQGKDPGP [R57E] has an abundance fitness of 0.021 ± 0.097.
Work on NRKASRNAYYFFVQEKIPELRRRGLPVARVADAIPYCSSDWALLREEEKEKYAEMAFEWRAAQGKDPGP [R57F] yielded an abundance fitness of -0.332 ± 0.23.
NRKASRNAYYFFVQEKIPELRRRGLPVARVADAIPYCSSDWALLREEEKEKYAEMAIEWRAAQGKDPGP [R57I] gave an abundance fitness of -0.398 ± 0.42.
NRKASRNAYYFFVQEKIPELRRRGLPVARVADAIPYCSSDWALLREEEKEKYAEMADEWRAAQGKDPGP [R57D] gave an abundance fitness of -0.072 ± 0.21.
With NRKASRNAYYFFVQEKIPELRRRGLPVARVADAIPYCSSDWALLREEEKEKYAEMAHEWRAAQGKDPGP [R57H] the abundance fitness was 0.206 ± 0.14.
With NRKASRNAYYFFVQEKIPELRRRGLPVARVADAIPYCSSDWALLREEEKEKYAEMACEWRAAQGKDPGP [R57C] the abundance fitness was -0.089 ± 0.15.
For NRKASRNAYYFFVQEKIPELRRRGLPVARVADAIPYCSSDWALLREEEKEKYAEMAAEWRAAQGKDPGP [R57A], the abundance fitness was 0.05 ± 0.078.
Variant NRKASRNAYYFFVQEKIPELRRRGLPVARVADAIPYCSSDWALLREEEKEKYAQMAREWRAAQGKDPGP [E54Q] has an abundance fitness of -0.147 ± 0.076.
With NRKASRNAYYFFVQEKIPELRRRGLPVARVADAIPYCSSDWALLREEEKEKYAKMAREWRAAQGKDPGP [E54K] the abundance fitness was 0.027 ± 0.076.
Work on NRKASRNAYYFFVQEKIPELRRRGLPVARVADAIPYCSSDWALLREEEKEKYAFMAREWRAAQGKDPGP [E54F] yielded an abundance fitness of -0.396 ± 0.12.
With NRKASRNAYYFFVQEKIPELRRRGLPVARVADAIPYCSSDWALLREEEKEKYANMAREWRAAQGKDPGP [E54N] the abundance fitness was -0.125 ± 0.09.
Work on NRKASRNAYYFFVQEKIPELRRRGLPVARVADAIPYCSSDWALLREEEKEKYAPMAREWRAAQGKDPGP [E54P] yielded an abundance fitness of -0.346 ± 0.14.
Work on NRKASRNAYYFFVQEKIPELRRRGLPVARVADAIPYCSSDWALLREEEKEKYAIMAREWRAAQGKDPGP [E54I] yielded an abundance fitness of 0.076 ± 0.095.
In the case of NRKASRNAYYFFVQEKIPELRRRGLPVARVADAIPYCSSDWALLREEEKEKYAGMAREWRAAQGKDPGP [E54G], the abundance fitness is reported as -0.049 ± 0.044.
In the case of NRKASRNAYYFFVQEKIPELRRRGLPVARVADAIPYCSSDWALLREEEKEKYASMAREWRAAQGKDPGP [E54S], the abundance fitness is reported as 0.107 ± 0.056.
With NRKASRNAYYFFVQEKIPELRRRGLPVARVADAIPYCSSDWALLREEEKEKYAWMAREWRAAQGKDPGP [E54W] the abundance fitness was -0.299 ± 0.047.
For NRKASRNAYYFFVQEKIPELRRRGLPVARVADAIPYCSSDWALLREEEKEKYATMAREWRAAQGKDPGP [E54T], the abundance fitness was 0.212 ± 0.073.
NRKASRNAYYFFVQEKIPELRRRGLPVARVADAIPYCSSDWALLREEEKEKYAVMAREWRAAQGKDPGP [E54V] showed an abundance fitness of -0.068 ± 0.054.
Variant NRKASRNAYYFFVQEKIPELRRRGLPVARVADAIPYCSSDWALLREEEKEKYAYMAREWRAAQGKDPGP [E54Y] has an abundance fitness of -0.293 ± 0.065.
NRKASRNAYYFFVQEKIPELRRRGLPVARVADAIPYCSSDWALLREEEKEKYAHMAREWRAAQGKDPGP [E54H] gave an abundance fitness of -0.161 ± 0.092.
With NRKASRNAYYFFVQEKIPELRRRGLPVARVADAIPYCSSDWALLREEEKEKYALMAREWRAAQGKDPGP [E54L] the abundance fitness was -0.13 ± 0.058.
